The source of these data is US20190062383A1.

Test [1] addresses human Kv1.3 (human) (UniProt P22001). In words: cell-based or functional assay.
The target in test [2] is human Kv1.1 (human) (UniProt Q09470). Put plainly: cell-based or functional assay.
The target in test [3] is human Kv1.3 (human) (UniProt P22001).
The target of test [4] is human Kv1.1 (human) (UniProt Q09470).

A value given as a limit tells only on which side of the number the result lay.

Chain of human Kv1.3 (human) (P22001 whole entry): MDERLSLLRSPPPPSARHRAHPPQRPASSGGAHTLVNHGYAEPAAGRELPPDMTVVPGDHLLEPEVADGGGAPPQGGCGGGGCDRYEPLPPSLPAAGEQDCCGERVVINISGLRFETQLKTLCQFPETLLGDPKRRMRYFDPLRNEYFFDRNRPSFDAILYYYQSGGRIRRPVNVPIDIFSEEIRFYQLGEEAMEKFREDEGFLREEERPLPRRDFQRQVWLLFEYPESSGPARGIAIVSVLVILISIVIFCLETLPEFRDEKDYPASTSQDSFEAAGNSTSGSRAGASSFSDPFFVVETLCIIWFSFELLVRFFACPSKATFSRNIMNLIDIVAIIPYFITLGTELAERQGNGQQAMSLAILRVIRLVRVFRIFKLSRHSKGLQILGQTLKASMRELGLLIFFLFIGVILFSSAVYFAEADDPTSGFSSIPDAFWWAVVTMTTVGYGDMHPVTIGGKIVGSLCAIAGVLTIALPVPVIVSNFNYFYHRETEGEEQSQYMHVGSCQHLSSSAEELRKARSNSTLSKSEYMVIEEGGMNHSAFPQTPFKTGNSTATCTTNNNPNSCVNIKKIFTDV
Chain of human Kv1.1 (human) (Q09470 whole entry): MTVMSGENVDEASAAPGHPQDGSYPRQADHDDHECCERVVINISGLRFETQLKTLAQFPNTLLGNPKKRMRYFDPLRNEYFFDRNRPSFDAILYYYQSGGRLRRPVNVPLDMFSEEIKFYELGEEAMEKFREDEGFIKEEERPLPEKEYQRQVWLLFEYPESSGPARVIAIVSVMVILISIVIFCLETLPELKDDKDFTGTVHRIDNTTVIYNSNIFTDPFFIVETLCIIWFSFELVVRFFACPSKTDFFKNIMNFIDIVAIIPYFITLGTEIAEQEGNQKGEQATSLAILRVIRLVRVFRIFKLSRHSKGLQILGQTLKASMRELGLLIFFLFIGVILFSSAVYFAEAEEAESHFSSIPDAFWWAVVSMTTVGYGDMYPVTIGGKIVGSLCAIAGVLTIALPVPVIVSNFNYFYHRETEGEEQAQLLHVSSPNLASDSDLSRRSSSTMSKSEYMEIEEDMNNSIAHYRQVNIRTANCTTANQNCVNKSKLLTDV

Regarding wild type OdK2 peptide, the Kv1.3 IC50, whole-cell patch clamp in test [1] amounted to 0.1 nM.

Substance KV1N2 (OsK1-Fc fusion) came in with a Kv1.3 IC50, patch clamp in test [1] of 0.3 nM. Further, in test [2], the Kv1.1 IC50, patch clamp was found to be 2 nM and the Kv1.1 IC50, whole-cell patch clamp stood at 2 nM. Further, the thallium flux KV1.3 IC50 in test [3] was 0.03 nM. This substance also came in with a thallium flux KV1.1 IC50 in test [4] of 0.1 nM.

In test [1], wild type OsK1 peptide had a CD4+ T cell inhibition IC50 of 0.03 nM; a CD8+ T cell inhibition IC50 of 0.03 nM; a Kv1.3 IC50, whole-cell patch clamp of 0.01 nM. In test [2], this substance displayed a Kv1.1 IC50, whole-cell patch clamp of 0.21 nM.

Regarding KV1C2 (OdK2-Fc fusion), the thallium flux KV1.1 IC50 in test [4] is above 1000 nM.
